Data as given in US20230093512A1.
Read-outs that look alike come from different tables or passages of the source.

What was measured:
[1] = target: human PD-L1 (PD-L1 aAPC/CHO-K1 cells) (human) (UniProt Q9NZQ7)
[2] = target: TGF-β3; experiment: ELISA: TGF-β3 coated on the plate, HRP-conjugated 2nd antibody, OD450
[3] = target: TGF-β1; experiment: ELISA: TGF-β1 coated on the plate, HRP-conjugated 2nd antibody, OD450
[4] = target: TGF-β2; experiment: ELISA: TGF-β2 coated on the plate, HRP-conjugated 2nd antibody, OD450
[5] = target: human PD-L1 (PD-L1 aAPC/CHO-K1 cells) (human) (UniProt Q9NZQ7); remark: listed apart in the source
[6] = target: TGF-β3; experiment: SPR, TGFβ ligand amine-coupled to chip, fusion protein as analyte, 25 °C, HBS-EP
[7] = target: TGF-β2; experiment: as above
[8] = target: TGF-β1; experiment: as above
[9] = target: TGF-β1; experiment: ELISA: TGF-β1 coated on the plate, HRP-conjugated 2nd antibody, OD450; remark: listed apart in the source
[10] = target: PD-L1 that is over expressed on CHO-K1 cells (Homo sapiens (Human)) (UniProt Q9NZQ7); experiment: flow cytometry (FACS) on CHO-K1 cells over expressing PD-L1, geometric mean
[11] = target: TGF-β3; experiment: ELISA: TGF-β3 coated on the plate, HRP-conjugated 2nd antibody, OD450; remark: listed apart in the source
[12] = target: TGF-β2; experiment: ELISA: TGF-β2 coated on the plate, HRP-conjugated 2nd antibody, OD450; remark: listed apart in the source

TGF-β2, sequence (P61812 303-414): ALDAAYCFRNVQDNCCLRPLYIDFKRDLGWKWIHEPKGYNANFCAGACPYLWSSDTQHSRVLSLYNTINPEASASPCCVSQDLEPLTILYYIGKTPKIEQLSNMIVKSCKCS
TGF-β3, sequence (P10600 301-412): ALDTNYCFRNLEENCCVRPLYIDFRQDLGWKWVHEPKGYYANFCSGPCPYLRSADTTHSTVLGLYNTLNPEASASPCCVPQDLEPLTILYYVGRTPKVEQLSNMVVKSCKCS
TGF-β1, sequence (P01137 279-390): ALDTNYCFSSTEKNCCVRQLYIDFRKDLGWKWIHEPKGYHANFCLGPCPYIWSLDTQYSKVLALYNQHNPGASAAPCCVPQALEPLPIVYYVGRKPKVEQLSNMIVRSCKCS
human PD-L1 (PD-L1 aAPC/CHO-K1 cells) (human), sequence (Q9NZQ7 19-290): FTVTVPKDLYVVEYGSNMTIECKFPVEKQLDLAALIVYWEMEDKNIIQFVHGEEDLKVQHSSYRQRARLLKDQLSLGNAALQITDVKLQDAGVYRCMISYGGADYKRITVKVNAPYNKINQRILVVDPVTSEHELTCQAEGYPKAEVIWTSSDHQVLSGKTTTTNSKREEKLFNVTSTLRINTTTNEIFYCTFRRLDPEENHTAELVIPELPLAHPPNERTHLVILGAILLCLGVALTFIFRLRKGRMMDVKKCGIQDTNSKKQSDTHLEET
PD-L1 that is over expressed on CHO-K1 cells (Homo sapiens (Human)), sequence (Q9NZQ7 19-290 limits assumed): as the sequence (Q9NZQ7 19-290) above

EC50, luminescence (RLU) of PD-1 effector cells co-cultured with PD-L1 aAPC/CHO-K1 cells, PD-1/PD-L1 blockade bioassay [1] [pM]	EC50 [2] [µg/mL]	EC50 [3] [µg/mL]	EC50 [4] [µg/mL]	EC50, luminescence (RLU) of PD-1 effector cells co-cultured with PD-L1 aAPC/CHO-K1 cells, PD-1/PD-L1 blockade bioassay [5] [pM]	Kd [6] [pM]	koff [6] [s⁻¹]	kon [6] [M⁻¹ s⁻¹]	Kd [7] [pM]	koff [7] [s⁻¹]	kon [7] [M⁻¹ s⁻¹]	Kd [8] [pM]	koff [8] [s⁻¹]	kon [8] [M⁻¹ s⁻¹]	EC50 [9] [µg/mL]	EC50 [10] [pM]	EC50 [11] [µg/mL]	EC50 [12] [µg/mL]	Substance
852	0.278	0.327	0.348	770	1020	0.00032	314000	4600	0.00132	286000	943	0.000315	334000	0.255	344	0.307	0.432	M7824
398																		Tecentriq (antibody)
